Measurements published in patent publication US20220056111A1 (YUROGEN BIOSYSTEMS, published 2022).

Columns and labels:
HcoV-NL63 S protein = target: T1, HcoV-NL63 S protein (HcoV-NL63, UniProt Q6Q1S2 19-1296); test: direct ELISA, OD450
T1 construct: also called hCov-NL63 S1
T1 sequence: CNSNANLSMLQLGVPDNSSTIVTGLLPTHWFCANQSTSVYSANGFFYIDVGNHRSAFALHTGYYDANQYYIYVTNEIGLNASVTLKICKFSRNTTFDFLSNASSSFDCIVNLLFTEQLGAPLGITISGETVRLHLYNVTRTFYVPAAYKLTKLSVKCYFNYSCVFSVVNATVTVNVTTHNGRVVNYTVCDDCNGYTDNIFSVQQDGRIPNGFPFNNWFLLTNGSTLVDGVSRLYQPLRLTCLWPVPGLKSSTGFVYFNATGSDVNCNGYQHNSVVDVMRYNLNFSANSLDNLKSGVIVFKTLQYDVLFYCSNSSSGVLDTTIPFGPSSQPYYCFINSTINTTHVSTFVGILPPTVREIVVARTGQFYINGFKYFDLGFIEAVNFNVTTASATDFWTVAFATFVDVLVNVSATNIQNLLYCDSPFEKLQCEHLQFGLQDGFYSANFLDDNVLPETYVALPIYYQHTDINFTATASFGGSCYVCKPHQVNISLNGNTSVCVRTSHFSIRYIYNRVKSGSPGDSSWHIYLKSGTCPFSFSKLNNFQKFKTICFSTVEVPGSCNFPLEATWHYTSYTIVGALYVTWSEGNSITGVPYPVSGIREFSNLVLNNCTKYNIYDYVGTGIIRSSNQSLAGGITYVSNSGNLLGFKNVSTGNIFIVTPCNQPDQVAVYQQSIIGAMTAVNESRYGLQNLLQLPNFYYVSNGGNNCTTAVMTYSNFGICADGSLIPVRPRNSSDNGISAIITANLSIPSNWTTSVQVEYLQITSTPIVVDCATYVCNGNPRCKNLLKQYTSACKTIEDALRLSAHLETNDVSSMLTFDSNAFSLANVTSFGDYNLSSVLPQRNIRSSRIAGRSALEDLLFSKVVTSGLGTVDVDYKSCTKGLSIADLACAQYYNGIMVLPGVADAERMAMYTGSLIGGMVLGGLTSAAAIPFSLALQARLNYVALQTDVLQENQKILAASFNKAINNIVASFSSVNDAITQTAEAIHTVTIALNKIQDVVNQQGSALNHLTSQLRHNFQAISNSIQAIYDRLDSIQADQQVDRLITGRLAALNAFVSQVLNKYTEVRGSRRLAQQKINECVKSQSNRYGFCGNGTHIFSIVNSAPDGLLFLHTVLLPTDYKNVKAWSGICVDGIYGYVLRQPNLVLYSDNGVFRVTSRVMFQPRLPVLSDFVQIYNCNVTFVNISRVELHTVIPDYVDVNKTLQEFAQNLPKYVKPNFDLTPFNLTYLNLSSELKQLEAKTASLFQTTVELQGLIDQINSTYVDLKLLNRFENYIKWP

HcoV-229E S protein = target: T2, HcoV-229E S protein (HcoV-229E, UniProt P15423 16-1115); test: direct ELISA, OD450
T2 sequence: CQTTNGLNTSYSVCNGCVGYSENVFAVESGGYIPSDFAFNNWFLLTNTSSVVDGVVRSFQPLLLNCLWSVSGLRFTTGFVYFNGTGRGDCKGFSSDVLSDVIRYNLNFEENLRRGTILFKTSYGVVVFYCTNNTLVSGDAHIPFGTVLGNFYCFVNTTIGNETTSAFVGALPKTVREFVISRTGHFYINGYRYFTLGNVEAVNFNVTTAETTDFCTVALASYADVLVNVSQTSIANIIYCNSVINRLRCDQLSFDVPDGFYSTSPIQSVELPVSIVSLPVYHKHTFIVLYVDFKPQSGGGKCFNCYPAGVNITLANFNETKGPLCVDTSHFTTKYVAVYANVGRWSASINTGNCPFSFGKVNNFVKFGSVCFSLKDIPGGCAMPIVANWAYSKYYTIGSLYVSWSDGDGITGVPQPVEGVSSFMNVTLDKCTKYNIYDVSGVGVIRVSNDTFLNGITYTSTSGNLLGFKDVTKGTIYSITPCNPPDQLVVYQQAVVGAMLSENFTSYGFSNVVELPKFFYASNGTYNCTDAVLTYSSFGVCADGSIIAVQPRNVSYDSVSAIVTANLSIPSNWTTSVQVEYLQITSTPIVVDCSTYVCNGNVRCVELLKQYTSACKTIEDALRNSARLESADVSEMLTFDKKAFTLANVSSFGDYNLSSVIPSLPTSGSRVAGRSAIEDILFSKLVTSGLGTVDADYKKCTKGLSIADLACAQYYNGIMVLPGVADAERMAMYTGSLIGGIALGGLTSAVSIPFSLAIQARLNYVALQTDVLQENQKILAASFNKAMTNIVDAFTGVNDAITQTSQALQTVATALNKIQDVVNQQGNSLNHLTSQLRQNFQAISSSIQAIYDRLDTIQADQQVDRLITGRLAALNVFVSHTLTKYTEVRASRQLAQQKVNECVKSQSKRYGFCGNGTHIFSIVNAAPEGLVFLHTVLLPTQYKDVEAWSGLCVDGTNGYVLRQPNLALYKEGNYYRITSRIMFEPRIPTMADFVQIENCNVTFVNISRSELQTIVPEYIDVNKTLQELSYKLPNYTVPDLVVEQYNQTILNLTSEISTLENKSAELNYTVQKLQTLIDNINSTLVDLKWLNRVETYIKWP

HcoV-OC43 S protein = target: T3, HcoV-OC43 S protein (HcoV-OC43, UniProt P36334 14-1297); test: direct ELISA, OD450
T3 sequence: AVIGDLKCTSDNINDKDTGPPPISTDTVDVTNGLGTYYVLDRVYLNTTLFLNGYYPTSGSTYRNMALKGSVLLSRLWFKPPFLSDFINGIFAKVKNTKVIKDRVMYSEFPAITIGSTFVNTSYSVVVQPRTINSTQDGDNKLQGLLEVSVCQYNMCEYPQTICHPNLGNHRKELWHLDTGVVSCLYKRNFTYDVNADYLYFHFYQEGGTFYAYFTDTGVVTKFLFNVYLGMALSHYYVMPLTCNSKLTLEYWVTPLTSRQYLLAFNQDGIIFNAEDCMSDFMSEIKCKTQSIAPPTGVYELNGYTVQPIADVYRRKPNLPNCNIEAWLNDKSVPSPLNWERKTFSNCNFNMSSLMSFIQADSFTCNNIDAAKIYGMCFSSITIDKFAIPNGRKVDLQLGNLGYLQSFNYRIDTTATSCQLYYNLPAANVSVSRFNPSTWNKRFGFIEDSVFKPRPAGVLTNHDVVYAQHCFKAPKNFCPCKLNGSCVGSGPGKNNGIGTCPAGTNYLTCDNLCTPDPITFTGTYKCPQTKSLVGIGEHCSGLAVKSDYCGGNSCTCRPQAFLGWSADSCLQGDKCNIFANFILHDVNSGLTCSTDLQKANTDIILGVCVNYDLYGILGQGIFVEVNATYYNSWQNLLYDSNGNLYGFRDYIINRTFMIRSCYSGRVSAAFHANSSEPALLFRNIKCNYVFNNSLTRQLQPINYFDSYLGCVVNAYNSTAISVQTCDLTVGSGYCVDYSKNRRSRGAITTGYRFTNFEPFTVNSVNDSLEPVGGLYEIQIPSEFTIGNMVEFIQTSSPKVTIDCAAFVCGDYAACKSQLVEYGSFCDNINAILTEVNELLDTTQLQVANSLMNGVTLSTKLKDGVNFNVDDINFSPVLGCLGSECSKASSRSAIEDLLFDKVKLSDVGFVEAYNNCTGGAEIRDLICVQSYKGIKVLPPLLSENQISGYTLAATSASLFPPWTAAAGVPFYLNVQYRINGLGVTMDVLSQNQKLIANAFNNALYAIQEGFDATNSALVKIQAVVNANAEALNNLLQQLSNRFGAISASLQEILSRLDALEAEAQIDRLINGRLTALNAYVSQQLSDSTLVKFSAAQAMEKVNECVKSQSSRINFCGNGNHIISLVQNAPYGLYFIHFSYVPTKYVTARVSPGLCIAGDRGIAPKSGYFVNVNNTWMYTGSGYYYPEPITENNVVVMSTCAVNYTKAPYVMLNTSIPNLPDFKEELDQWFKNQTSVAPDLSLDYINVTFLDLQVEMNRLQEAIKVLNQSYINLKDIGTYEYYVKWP

[1] = target: SARS-CoV-2 Spike S1 protein (SARS-CoV-2, UniProt P0DTC2 16-685)
[2] = target: RBD (receptor binding domain) of the SARS-CoV-2 S1 (SARS-CoV-2, UniProt P0DTC2 319-541)

Binder | binding result (HcoV-NL63 S protein) | binding result (HcoV-229E S protein) | binding result (HcoV-OC43 S protein) | Kd [1] | koff [1] | kon [1] | EC50 (read off the curve) [2]
rabbit monoclonal antibody 5E1 against the SARS-CoV-2 S1 (antibody, V domains shown) VH: QSVEESGGRLVTPGTPLTLTCTVSGIDLSSYAMGWVRQAPGKGLEYIGIIYISGLTYYASWAKGRFTISKTSTTVDLKIPSPTTEDTATYFCARGEYNSHSHYLLWGPGTLVTVSS VL: AYDMTQTPSSVSEPVGGTVSIKCQASQNIYSNLAWYQQKPGQRPKLLIYDASQLASGVPSRFKGSGSGTEYTLTISGVECADAATYYCQQGFESSDIFNVFGGGTEVVVKG | no binding | no binding | no binding | ≤ 0.138 nM | ≤ 1e-05 s⁻¹ | 72300 M⁻¹ s⁻¹ | –
rabbit monoclonal antibody 9H1 against the SARS-CoV-2 S1 (antibody, V domains shown) VH: QSVEESGGRLVTPGTPLTLTCTVSGFSLSRYAMSWVRQAPGKGLEWIGIIVDSGHTAYASWAKGRFTISRTSTTVDLKMTSLTTEDTATYFCARETGGGAFYVFEFWGPGTVVTVSS VL: AQVLTQTPSSVSAAVGGTVTINCQASEDIYDNLVWYQQKPGQPPKLLIYDASTLAFGVSSRFRGSGSGTHFTLTMRDVQCDDAATYYCQGEFSCSSGDCTAFGGGTEVVVKG | no binding | no binding | no binding | 0.769 nM | 0.00025 s⁻¹ | 325000 M⁻¹ s⁻¹ | ~20 ng/mL
